According to patent publication US20220073617A1 (Five Prime, published 2022):
Numbering of substitutions follows the chain as printed. Names may count otherwise. “And” between values parts separate entries of the source, which are not always exact repeats. Equal values may be shown once.

Columns and labels:
[1] = molecular target: avidin (ThermoFisher Scientific catalog #21128) (UniProt P02701 25-152); experiment: SPR 25C pH 6.0 and 7.4
Description: (§1) The binding specificity of the '029, '761 and '767 clones to VISTA and to other high pI proteins was evaluated by SPR at neutral and acidic pH using a Biacore® T100 instrument (GE Healthcare). Protein A (ThermoFisher Scientific catalog #21181) was diluted to 20 ug/ml in 10 mM sodium acetate pH 4.5 and immobilized onto flow cells of a CM3 biosensor following the manufacturer's amine coupling protocol (GE Healthcare), targeting 800 RU immobilization density of Protein A per flow cell. SPR experiments were conducted at 25° C. using PBST (137 mM sodium chloride, 2.7 mM potassium chloride, 10 mM phosphate buffer, 0.05% Tween 20) running buffer at pH 7.4 and 6.0. Antibodies (formatted as IgG1.3 antibodies) were diluted to 50 nM in PBST pH 7.4, and were captured across active biosensor flow cells at 5 ul/min for 60 seconds. […] Two 15 second injections of 10 mM glycine pH 1.5 were used to regenerate the Protein A capture surface between assay cycles. Reference flow cell and 0 nM blank-subtracted sensorgrams were inspected using Biacore® T200 Evaluation Software v.2.0. The results are shown in […]

[2] = molecular target: BSA (Calbiochem catalog #126593) (UniProt P02769 25-607); experiment: SPR 25C pH 6.0 and 7.4
Description: as §1

[3] = molecular target: T1, monovalent hVISTA-ECD (human VISTA extracellular domain with His tail) (human, UniProt Q9H7M9 33-193); experiment: SPR, pH 7.4
T1 construct: analyte flowed over captured antibody; also called huVISTA-His

[4] = molecular target: T2, cyno VISTA-ECD (cynomolgus VISTA extracellular domain with His tail) (cynomolgus macaque, UniProt Q9H7M9 33-193 (human entry)); experiment: SPR, pH 7.4
T2 construct: also called cyVISTA-His
T2 chain: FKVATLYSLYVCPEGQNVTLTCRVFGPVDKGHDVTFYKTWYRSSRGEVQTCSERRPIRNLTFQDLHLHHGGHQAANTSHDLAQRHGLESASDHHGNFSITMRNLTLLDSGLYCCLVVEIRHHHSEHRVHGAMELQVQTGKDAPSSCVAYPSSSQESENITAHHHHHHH

[5] = molecular target: T1, monovalent hVISTA-ECD (human VISTA …); experiment: SPR, pH 6.0
[6] = molecular target: T2, cyno VISTA-ECD (cynomolgus VISTA …); experiment: SPR, pH 6.0
[7] = molecular target: T1, monovalent hVISTA-ECD (human VISTA …); experiment: SPR, pH 7.4; remark: listed apart in the source
Description: (§2) Binding of several preparations of each of the '029 progeny clones and of the parent '029 antibodies, formatted as IgG1.3 antibodies, to human VISTA at pH 6.0 and 7.4 was measured by Surface plasmon resonance (SPR). SPR analysis was performed to measure koff and KD binding affinity measurements for VISTA Abs at acidic and neutral pHs using a Biacore® T100 instrument (GE Healthcare). Protein A (ThermoFisher Scientific catalog #21181) was diluted to 20 ug/ml in 10 mM sodium acetate pH 4.5 and immobilized onto flow cells of a CM5 biosensor following the manufacturer's amine coupling protocol (GE Healthcare), targeting 2,000 RU immobilization density of Protein A per flow cell. SPR experiments were conducted at 37° C. using PBST (137 mM sodium chloride, 2.7 mM potassium chloride, 10 mM phosphate buffer, 0.05% Tween® 20) running buffer at pH 7.4 and 6.0. Antibodies were diluted to 25 nM in PBST pH 7.4, and were captured across active biosensor flow cells at 5 ul/min for 60 seconds. […] Two 15 second injections of 10 mM glycine pH 1.5 were used to regenerate the Protein A capture surface between assay cycles. Rate constants ka (kₒₙ) and kd (koff) were derived from reference flow cell and 0 nM blank-subtracted sensorgrams, and were fit to a 1:1 binding model in Biacore® T200 Evaluation Software v.2.0. The affinity constant, KD was calculated as the ratio of rate constants koff/kₒₙ for each VISTA antibody. […]

[8] = molecular target: T1, monovalent hVISTA-ECD (human VISTA …); experiment: SPR, pH 7.4; remark: listed apart in the source
Description: (§3) Binding of several preparations of each of the '029 progeny clones and of the parent '029 antibodies, formatted as IgG1.3 antibodies, to human VISTA at pH 6.0 and 7.4 was measured by Surface plasmon resonance (SPR). SPR analysis was performed to measure koff and KD binding affinity measurements for VISTA Abs at acidic and neutral pHs using a Biacore® T100 instrument (GE Healthcare). Protein A (ThermoFisher Scientific catalog #21181) was diluted to 20 ug/ml in 10 mM sodium acetate pH 4.5 and immobilized onto flow cells of a CM5 biosensor following the manufacturer's amine coupling protocol (GE Healthcare), targeting 2,000 RU immobilization density of Protein A per flow cell. SPR experiments were conducted at 37° C. using PBST (137 mM sodium chloride, 2.7 mM potassium chloride, 10 mM phosphate buffer, 0.05% Tween® 20) running buffer at pH 7.4 and 6.0. Antibodies were diluted to 25 nM in PBST pH 7.4, and were captured across active biosensor flow cells at 5 ul/min for 60 seconds. […] Two 15 second injections of 10 mM glycine pH 1.5 were used to regenerate the Protein A capture surface between assay cycles. Rate constants ka (kₒₙ) and kd (koff) were derived from reference flow cell and 0 nM blank-subtracted sensorgrams, and were fit to a 1:1 binding model in Biacore® T200 Evaluation Software v.2.0. The affinity constant, KD was calculated as the ratio of rate constants koff/kₒₙ for each VISTA antibody.
(§4) This initial campaign led to pH-independent VISTA.4 variants with near equivalent koff at pH 6 and pH 7. In order to obtain an antibody that binds to hVISTA with high affinity at pH 6.0 and low affinity at pH 7.0, a new library based on consensus sequence of pH-independent VISTA.4 variants was designed and constructed, with amino acid residues in the loops substituted for charge amino acid residues (see Example 9), and screened via yeast surface display (see Example 9). The library was analyzed as previously described (see Example 9) and selected variants were reformatted as IgG1.3 for further analysis (Tables 26 and 27). SPR analysis was conducted on these variants using the conditions previously described in Example 9.

[9] = molecular target: T1, monovalent hVISTA-ECD (human VISTA …); experiment: SPR, pH 6.0; remark: listed apart in the source
Description: as §3, §4

[10] = molecular target: T1, monovalent hVISTA-ECD (human VISTA …); experiment: SPR, pH 6.0; remark: listed apart in the source
Description: as §2

[11] = molecular target: T1, monovalent hVISTA-ECD (human VISTA …); experiment: SPR, pH 6.0, average
Description: as §2

[12] = molecular target: T1, monovalent hVISTA-ECD (human VISTA …); experiment: SPR, pH 7.4, average
Description: as §3
Some of the VISTA.4 mutants described above and new mutants were tested for binding to hVISTA, according to the methods described in Example 9. […] Antibody 41F11_VH_T28P/Y50W/S55E/D95H/L96E/P97E/Y100E; VK_A64G (P1-070976) is the only VISTA.4 derivative that is pH selective.

[13] = molecular target: T1, monovalent hVISTA-ECD (human VISTA …); experiment: SPR
Description: as §3

[14] = molecular target: T1, monovalent hVISTA-ECD (human VISTA …); experiment: SPR, pH 6.0; remark: listed apart in the source
Description: as §3

[15] = molecular target: T1, monovalent hVISTA-ECD (human VISTA …); experiment: SPR, pH 7.4; remark: listed apart in the source
Description: as §3

[16] = molecular target: T1, monovalent hVISTA-ECD (human VISTA …); experiment: SPR; remark: listed apart in the source
Description: as §2

Chain of avidin (ThermoFisher Scientific catalog #21128) (P02701 25-152 limits assumed): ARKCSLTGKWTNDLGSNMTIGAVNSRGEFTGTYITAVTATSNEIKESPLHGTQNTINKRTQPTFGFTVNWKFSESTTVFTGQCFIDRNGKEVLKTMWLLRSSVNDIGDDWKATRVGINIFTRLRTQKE
Chain of BSA (Calbiochem catalog #126593) (P02769 25-607 limits assumed): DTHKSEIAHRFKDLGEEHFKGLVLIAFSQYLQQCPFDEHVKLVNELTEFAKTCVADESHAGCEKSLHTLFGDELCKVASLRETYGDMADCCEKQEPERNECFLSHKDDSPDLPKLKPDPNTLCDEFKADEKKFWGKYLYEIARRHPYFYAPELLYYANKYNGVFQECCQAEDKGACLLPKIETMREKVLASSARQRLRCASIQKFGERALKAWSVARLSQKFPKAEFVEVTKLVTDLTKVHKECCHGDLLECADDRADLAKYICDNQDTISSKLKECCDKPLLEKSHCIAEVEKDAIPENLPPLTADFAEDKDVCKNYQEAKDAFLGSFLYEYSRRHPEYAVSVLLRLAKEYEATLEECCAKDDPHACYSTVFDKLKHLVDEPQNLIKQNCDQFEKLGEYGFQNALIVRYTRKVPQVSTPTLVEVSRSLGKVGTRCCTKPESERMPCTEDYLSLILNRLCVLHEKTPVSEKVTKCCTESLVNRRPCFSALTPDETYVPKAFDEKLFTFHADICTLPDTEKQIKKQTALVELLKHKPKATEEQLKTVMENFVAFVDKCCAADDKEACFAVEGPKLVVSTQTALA

B1: P1-068767.IgG1.3 (antibody, V domains shown)
VH: EVQLVESGGGLVQPGKSLRLSCAASGFTLEDYAMHWVRQAPGKGLEWVSGIDWNSENIGYADSVKGRFTISRDNAKNSLYLQMNSLRTEDTALYYCAKVPGYSGGWIDAEDDWGQGTMVTVSS
VL: not shown
notes: also called P1-068767 hIgG1.3f; VISTA.18
B1: no binding (tested: <=10 RU, 100-10 nM) [1]; no binding (tested: <=10 RU, 100-10 nM) [2].

B2: P1-072315 (41F11_VH_T28P/Y50W/S55E/L96E/Y100E VK_A64G) (antibody, V domains shown)
VH: QVQLVESGGGLVKPGGSLRLSCAASGFPFSDYYMSWIRQAPGKGLEWVSWISNSGEPIYYADSVKGRFTISRDNAKNSLYLQMNSLRAEDTAVYYCARDEPGWEFDLWGRGTLVTVSS
VL: EIVLTQSPATLSLSPGERATLSCRASQSVSSYLAWYQQKPGQAPRLLIYDASNRATGIPARFSGSGSGTDFTLTISSLEPEDFAVYYCQQRNNWPRTFGQGTKVEIK
notes: Same variable-region description as P1-065333 under another ID; also called P1-072315-1
B2 showed a Kd [3] of 2.5 nM, a koff [3] of 0.00079 s⁻¹ and a kon [3] of 320000 M⁻¹ s⁻¹. It also gave a Kd [4] of 1.9 nM, a koff [4] of 0.00068 s⁻¹ and a kon [4] of 350000 M⁻¹ s⁻¹. It also gave a Kd [5] of 0.35 nM, a koff [5] of 0.0015 s⁻¹ and a kon [5] of 4.2e+06 M⁻¹ s⁻¹. It also gave a Kd [6] of 0.6 nM, a koff [6] of 0.0016 s⁻¹ and a kon [6] of 2.7e+06 M⁻¹ s⁻¹.

B3: VISTA.4 A64G (41F11 Vk:A64G) (antibody, human IgG1, kappa, V domains shown)
VH: B2 VH with P28T, W50Y, E56S, E100L, E104Y
VL: EIVLTQSPATLSLSPGERATLSCRASQSVSSYLAWYQQKPGQAPRLLIYDASNRATGIPARFSGSGSGTDFTLTISSLEPEDFAVYYCQQRNNWPRTFGQGTKVEIKR
notes: IgG1.3; also called P1-061520; P1-061520-10
For B3, the Kd [7] was 4.48 nM and 4.19 nM, the koff [7] was 0.00103 s⁻¹ and 0.00105 s⁻¹ and the kon [7] was 231000 M⁻¹ s⁻¹ and 250000 M⁻¹ s⁻¹. It also gave a Kd [8] of 1.7 nM, a koff [8] of 0.00093 s⁻¹ and a kon [8] of 550000 M⁻¹ s⁻¹. It also gave a Kd [9] of 38 nM, a koff [9] of 0.086 s⁻¹ and a kon [9] of 2.3e+06 M⁻¹ s⁻¹. For the same binder, the Kd [10] was 17.4 nM and 16.6 nM, the koff [10] was 0.0403 s⁻¹ and 0.0395 s⁻¹ and the kon [10] was 2.31e+06 M⁻¹ s⁻¹ and 2.37e+06 M⁻¹ s⁻¹. The Kd [11] was 40 nM, the koff [11] was 0.033 s⁻¹ and the kon [11] was 830000 M⁻¹ s⁻¹. For the same binder, the Kd [12] was 4 nM, the koff [12] was 0.00091 s⁻¹ and the kon [12] was 230000 M⁻¹ s⁻¹.

B4: P1-071799 (P1-070976_H95D) (antibody, human IgG1, kappa, V domains shown)
VH: B2 VH with P101E
VL: B3 VL
notes: IgG1.3
B4 was tested, and the Kd [11] was 15 nM, the koff [11] was 0.027 s⁻¹ and the kon [11] was 1.7e+06 M⁻¹ s⁻¹.

B5: P1-071801 (P1-070976_E97P) (antibody, human IgG1, kappa, V domains shown)
VH: B2 VH with D99H
VL: B3 VL
notes: IgG1.3
Binder B5 has a Kd [11] of 3.5 nM, a koff [11] of 0.0016 s⁻¹ and a kon [11] of 460000 M⁻¹ s⁻¹. For the same binder, the Kd [12] was 21 nM, the koff [12] was 0.00061 s⁻¹ and the kon [12] was 29000 M⁻¹ s⁻¹.

B6: P1-065333 (41F11_VH_T28P/Y50W/S55E/L96E/Y100E VK_A64G) (antibody, human IgG1, kappa, V domains shown)
VH: B2 VH
VL: B3 VL
notes: IgG1.3; also called P1-065333-1; VISTA.4 pH-independent progeny
B6 gave a Kd [7] of 3.17 nM, a koff [7] of 0.000883 s⁻¹ and a kon [7] of 278000 M⁻¹ s⁻¹. The “pH 6.0/7.4 KD” value [13] was 0.2, the “pH 6.0/7.4 kd” value [13] was 1.4 and the Kd [8] was 2.2 nM. For the same binder, the koff [8] was 0.00094 s⁻¹, the kon [8] was 430000 M⁻¹ s⁻¹ and the Kd [14] was 0.38 nM. The “kd improvement vs parent” value [14] was 81.7 fold, the koff [14] was 0.0013 s⁻¹ and the kon [14] was 3.4e+06 M⁻¹ s⁻¹. For the same binder, the Kd [9] was 0.47 nM, the koff [9] was 0.0018 s⁻¹ and the kon [9] was 3.8e+06 M⁻¹ s⁻¹. For the same binder, the Kd [15] was 1.9 nM, the “kd improvement vs parent” value [15] was 1 fold and the koff [15] was 0.00093 s⁻¹. The kon [15] was 480000 M⁻¹ s⁻¹, the Kd [10] was 0.434 nM and the koff [10] was 0.00142 s⁻¹. For the same binder, the kon [10] was 3.28e+06 M⁻¹ s⁻¹, the Kd [11] was 0.56 nM and the koff [11] was 0.0015 s⁻¹. The kon [11] was 2.7e+06 M⁻¹ s⁻¹, the Kd [12] was 3.2 nM and the koff [12] was 0.00078 s⁻¹. The kon [12] was 240000 M⁻¹ s⁻¹ and the “KD ratio (pH 7.4/pH 6.0)” value [16] was 7.3.

B7: P1-070976 (41F11_VH_T28P/Y50W/S55E/D95H/L96E/P97E/Y100E; Vk_A64G) (antibody, human IgG1, kappa, V domains shown)
VH: B2 VH with D99H, P101E
VL: B3 VL
notes: IgG1.3; also called P1-070976-7; acidic pH selective VISTA.4 progeny
B7 showed a Kd [3] of 2300 nM, a koff [3] of 0.14 s⁻¹ and a kon [3] of 61000 M⁻¹ s⁻¹. The Kd [4] was 5900 nM, the koff [4] was 0.026 s⁻¹ and the kon [4] was 4400 M⁻¹ s⁻¹. The Kd [9] was 15 nM, the koff [9] was 0.0028 s⁻¹ and the kon [9] was 190000 M⁻¹ s⁻¹. It also gave a Kd [11] of 23 nM, a koff [11] of 0.0026 s⁻¹ and a kon [11] of 110000 M⁻¹ s⁻¹. For the same binder, the Kd [5] was 13 nM, the koff [5] was 0.0028 s⁻¹ and the kon [5] was 230000 M⁻¹ s⁻¹. It also gave a Kd [6] of 24 nM, a koff [6] of 0.0038 s⁻¹ and a kon [6] of 160000 M⁻¹ s⁻¹.
